Measurements from US20230039109A1 (Novartis, published 2023).

Molecular target: T1, human CD73 expressed on the cell surface (human, UniProt P21589 27-549)
T1 construct: whole, on cells; also called surface CD73
T1 sequence (looked up): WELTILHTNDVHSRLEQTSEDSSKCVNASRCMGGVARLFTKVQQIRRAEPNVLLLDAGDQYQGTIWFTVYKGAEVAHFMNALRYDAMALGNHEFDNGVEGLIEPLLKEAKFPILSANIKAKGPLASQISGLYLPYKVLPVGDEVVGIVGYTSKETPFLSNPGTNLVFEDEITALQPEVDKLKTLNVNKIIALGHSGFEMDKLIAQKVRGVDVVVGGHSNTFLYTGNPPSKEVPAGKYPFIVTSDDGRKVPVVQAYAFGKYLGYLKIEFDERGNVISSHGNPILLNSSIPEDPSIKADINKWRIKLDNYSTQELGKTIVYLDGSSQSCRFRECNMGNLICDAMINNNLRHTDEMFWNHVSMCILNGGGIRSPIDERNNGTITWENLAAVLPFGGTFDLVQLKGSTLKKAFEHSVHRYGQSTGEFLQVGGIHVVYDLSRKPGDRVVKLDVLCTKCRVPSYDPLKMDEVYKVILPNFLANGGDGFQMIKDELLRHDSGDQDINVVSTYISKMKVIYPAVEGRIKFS
Assay: flow cytometry, biotinylated antibody in human whole blood, CD8+ T cells, streptavidin-APC
Protocol: Whole blood target engagement was assessed by flow cytometry using whole blood from healthy human donors. Briefly, biotinylated antibodies were incubated with whole blood for 30 minutes prior to red blood cell lysis and fixation. Fixed cells were stained for CD3 and CD8 to identify CD8+ T cells, and streptavidin-APC to detect biotin. After staining, the cell were washed and subjected to flow cytometry analysis.

EC50 (read off the curve): ~6 ng/mL
B1: anti-CD73 antibody 356.B (antibody, human IgG4 S228P, kappa, V domains shown)
VH: QVQLQESGPGLVKPSETLSLTCTVSGGSIEGRYWSWIRQPPGKGLEWIGYIYGSGSTKYNPSLKSRVTISVDTSKNQFSLKLSSVTAADTAVYYCARESQESPYNNWFDPWGQGTLVTVSS
VL: DIQMTQSPSSVSASVGDRVTITCRASQGISSWLAWYQQKPGKAPKLLIYAASSLQSGVPSRFSGSGSGTDFTLTISSLQPEDFATYYCQQGNSFPRTFGGGTKVEIKR
notes: IgG4 S228P/L235E format; The last heavy chain residue X is K or absent; Biotinylated in the whole blood flow cytometry assay
